Results from publication PMC11352241, “Detection of Hepatocellular Carcinoma in an Orthotopic Patient-Derived Xenograft with an Epithelial Cell Adhesion Molecule-Specific Peptide” (Cancers, 2024).
Values belong to the molecule of their own block, whether it stands above or below them. Residues, ends and D or L forms follow the SMILES beside them. No end group written: not given here. *: point of attachment. X2 = CC1(C)C(=CC=C2CCCC(C=CC3=[N+](CCCCS(=O)(=O)[O-])c4ccc(S(=O)(=O)O)cc4C3(C)C)=C2Oc2ccc(S(=O)(=O)O)cc2)N(CCCCCC(=O)NCCN2C(=O)CC(*)C2=O)c2ccc(S(=O)(=O)O)cc21; IRDye800 = IRDye800 near-infrared fluorophore

Columns and labels:
[1] = Peptide biodistribution in harvested organs; format: in vivo, mouse; conditions: organs harvested 1.5 h post-injection, NIR fluorescence
Experimental: PDX-implanted mouse livers were exposed by making a small (1–2 cm) incision in the abdomen below the sternum. A custom laparoscope that collects white light and fluorescence images (λex = 785 nm) concurrently were used to image the liver region at 1.5 h post-injection via the tail vein [34]. IRDye800-labeled peptides, unlabeled peptide, and ICG were administrated as described above. Once imaging was completed, major organs, including the heart, spleen, lung, liver, brain, stomach, kidney, and intestine, were collected and imaged with white light and fluorescence to evaluate peptide biodistribution.

[2] = Animal necropsy for acute toxicity; format: in vivo, mouse; conditions: healthy mice, 48 h post-injection, 300 μM, 200 μL PBS; heart, liver, spleen, lung, kidney, stomach, intestine, brain
Experimental: Healthy mice were euthanized at 48 h post-injection with the IRDye800-labeled target peptide (300 μM, 200 μL PBS). Major organs, including liver, kidney, heart, lung, spleen, stomach, intestine, and brain, were resected and submitted for pathological evaluation to assess for acute toxicity.

[3] = system: human HCC patient-derived xenograft (PDX) tumors; experiment: In vivo whole-body NIR fluorescence imaging, orthotopic HCC PDX
Experimental: Orthotopic HCC mice were used for imaging ~3–4 weeks post-implantation.
IRDye800-labeled target and control peptides (300 μM, 200 μL PBS), unlabeled target peptide (block, 1.5 mM, 100 μL), and ICG (2.46 mg/kg) were injected in tumor-bearing animals using the tail vein. Unlabeled target peptide was injected 30 min prior to the IRDye800-labeled target peptide to compete for binding. The Pearl Trilogy (LI-COR Biosciences) was used to collect whole-body NIR fluorescence images over a time frame of 24 h post-injection.

[4] = Serum stability; format: in vitro ADME; conditions: 30 μM IRDye800-labeled peptide in mouse serum, 37 °C, 0, 0.5, 1.0, 1.5, 2, 3, 4 and 24 h, analytical RP-HPLC area under the peak; R^2 = 0.99; n = 6 mice in each group; read-out: half-life T1/2 in mouse serum (converted)
Experimental: IRDye800-labeled target peptide measuring 30 μM was incubated with mouse serum at time intervals ranging up to 24 h at 37 °C, and was monitored by analytical RP-HPLC. The relative peptide concentrations were determined by measuring the area under the peak (Waters, Breeze 2).

[5] = molecular target: T1, EpCAM (Homo sapiens, UniProt P16422); experiment: Binding competition with unlabeled peptide on Hep3B cells; format: cell-based; conditions: confocal microscopy
T1 construct: endogenous in cells; host or cells: Hep3B human hepatocellular carcinoma cells
T1 sequence (P16422 24-314): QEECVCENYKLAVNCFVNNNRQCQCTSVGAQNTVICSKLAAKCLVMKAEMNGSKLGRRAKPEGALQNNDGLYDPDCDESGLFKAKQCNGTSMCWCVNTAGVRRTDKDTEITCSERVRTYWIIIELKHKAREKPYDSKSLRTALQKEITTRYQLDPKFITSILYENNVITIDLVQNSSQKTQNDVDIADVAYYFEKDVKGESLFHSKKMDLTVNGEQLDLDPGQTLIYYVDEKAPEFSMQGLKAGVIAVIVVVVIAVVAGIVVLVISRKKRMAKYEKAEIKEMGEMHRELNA
Experimental: Unlabeled target and control peptide was added to IRDye800-labeled target peptides to compete for binding to EpCAM. Inverted confocal microscopy (Leica, Wetzlar, Germany, Stellaris 5) was used to acquire the NIR fluorescence images, and intensities were measured with custom MATLAB (Mathworks) software (Matlab version R2023a).

[6] = molecular target: EpCAM; conditions: read-out: binding affinity kd; cited from earlier work
Description: An IRDye800-labeled chimeric monoclonal antibody 323/A3 was used to detect a broad range of tumors found clinically. Cell-derived xenograft colon, breast, head and neck, and peritoneal carcinomatosis tumors were implanted orthotopically. Tumor nodules with millimeter dimensions were detected with NIR fluorescence imaging that were not otherwise visible. […] Also, a 7-mer peptide YQ-S2 was labeled with the NIR fluorophore MPA [36]. The peptide was character ...

[7] = system: tumors; conditions: ICG, EPR effect; cited from earlier work
Description: An IRDye800-labeled chimeric monoclonal antibody 323/A3 was used to detect a broad range of tumors found clinically. Cell-derived xenograft colon, breast, head and neck, and peritoneal carcinomatosis tumors were implanted orthotopically. Tumor nodules with millimeter dimensions were detected with NIR fluorescence imaging that were not otherwise visible. […] Also, a 7-mer peptide YQ-S2 was labeled with the NIR fluorophore MPA [36]. The peptide was character ... || Image-guided surgery aims to remove all cancerous tissues, and thus requires an effective strategy to discriminate tumor cells from non-tumor cells. NIR fluorescence imaging can be used as an adjunct to conventional laparoscopy to assist the surgeon to identify small and missed lesions. The spectra of white light illumination and IRDye800 fluorescence are sufficiently separated so that both modalities can be used concurrently during surgery. ICG is FDA-approved, and this contrast agent is currently being used clinically to identify HCC in real time. The non-specific NIR dye gathers in t ...

[8] = molecular target: T2, HPD*-IRDye800; experiment: Hep3B cell binding
T2 chain: HPDMFTRTHSHNGGGSC-IRDye800

- effect of unlabeled peptide on HPD*-IRDye800 fluorescence intensity [5]: decrease significantly
Molecule: HPDMFTRTHSHN [HPD*, unlabeled 12-mer EpCAM target peptide …]

- effect of unlabeled peptide on HPD*-IRDye800 fluorescence intensity [5]: did not show an intensity reduction
Molecule: PFHDMHSNHTRT [PFH*, unlabeled scrambled control peptide …]

- Kd [8]: 67 nM
B1: EpCAM (protein)
chain: QEECVCENYKLAVNCFVNNNRQCQCTSVGAQNTVICSKLAAKCLVMKAEMNGSKLGRRAKPEGALQNNDGLYDPDCDESGLFKAKQCNGTSMCWCVNTAGVRRTDKDTEITCSERVRTYWIIIELKHKAREKPYDSKSLRTALQKEITTRYQLDPKFITSILYENNVITIDLVQNSSQKTQNDVDIADVAYYFEKDVKGESLFHSKKMDLTVNGEQLDLDPGQTLIYYVDEKAPEFSMQGLK

Second part, the molecule before the results:

Molecule: CSCC[C@H](NC(=O)[C@H](CC(=O)O)NC(=O)[C@@H]1CCCN1C(=O)[C@@H](N)Cc1c[nH]cn1)C(=O)N[C@@H](Cc1ccccc1)C(=O)N[C@H](C(=O)N[C@@H](CCCNC(=N)N)C(=O)N[C@H](C(=O)N[C@@H](Cc1c[nH]cn1)C(=O)N[C@@H](CO)C(=O)N[C@@H](Cc1c[nH]cn1)C(=O)N[C@@H](CC(N)=O)C(=O)NCC(=O)NCC(=O)NCC(=O)N[C@@H](CO)C(=O)N[C@@H](CSC1CC(=O)N(CCNC(=O)CCCCCN2C(=CC=C3CCCC(C=CC4=[N+](CCCCS(=O)(=O)[O-])c5ccc(S(=O)(=O)O)cc5C4(C)C)=C3Oc3ccc(S(=O)(=O)O)cc3)C(C)(C)c3cc(S(=O)(=O)O)ccc32)C1=O)C(N)=O)[C@@H](C)O)[C@@H](C)O (some centres unmarked) [HPD*-IRDye800] (H-HPDMFTRTHSHNGGGSC(X2)-NH2)
- uptake in kidney [1]: High uptake
- acute toxicity on histopathology of major organs [2]: No signs of acute peptide toxicity
- time of return of intensity to baseline ([3]; whole-body fluorescence images post-injection): ~ 24 h
- time of peak uptake by HCC tumor post-injection ([3]; whole-body fluorescence, 300 μM, 200 μL PBS, tail vein, orthotopic HCC PDX in NSG mice, n = 6): 1.5 h
- half-life at 30 μM [4]: 2.6 h

Molecule: SNFYMPL [7-mer EpCAM peptide used to label a pH-sensitive polymeric micelle encapsulating paclitaxel]
- Kd [6]: 164 nM

Molecule: CC1(C)C(/C=C/C=C/C=C/C=C2\N(CCCCS(=O)(=O)O)c3ccc4ccccc4c3C2(C)C)=[N+](CCCCS(=O)(=O)[O-])c2ccc3ccccc3c21 [ICG, indocyanine green, reference compound]
- T/B ratio at peak uptake ([3]; whole-body imaging, 1.5 h post-injection, tail vein, labeled peptides 300 μM, 200 μL, block = unlabeled HPD* before HPD*-IRDye800, ICG 2.46 mg/kg, mean ± SD, n = 6): 1.26 ± 0.05
- time of maximum tumor absorption post-injection [7]: > 48 h
